Experimental data from patent publication US20240254229A1 (Molecular Partners, published 2024).
“And” between values parts separate entries of the source, which are not always exact repeats. Equal values may be shown once. Each block holds one binder with its values, some of them ahead of it.

Assays:
[1] = target: T1, hCD33 (recombinant, construct not stated) (human, UniProt P20138 18-259, limits assumed); assay: switchSENSE, CD33 and CD123 on one chip; monophasic; CD33-only control, monophasic
T1 construct: also called CD33 (Ligand 1)

[2] = target: T1, hCD33 (recombinant, construct not …); assay: switchSENSE, hCD33 and hCD123 co-immobilised 2:1; panel headed CD33, column KD1; KD2 printed N.A.
Description: (§1) The designed ankyrin repeat proteins: DARPin® protein #20, DARPin® protein #21, DARPin® protein #22, DARPin® protein #27, DARPin® protein #40 and DARPin® protein #41 were tested in a concentration of 0.16 and 64 nM (in a buffer PE140 containing 10 mM Na2HPO4/NaH2PO4, 140 mM NaCl, 0.05% Tween20, 50 μM EDTA, 50 μM EGTA) for binding against two ligands hCD33 and hCD123, which both were immobilized simultaneously to DNA nanolevers, on the surface, at a pre-defined ratio (2:1, CD33:CD123) and 10% density (100:50) on an ADP-48-1-0 chip, where 100% density 1000 receptors/μm2 (preincubated R1-B48-CD123 and G1-A48-CD33 (100 nM) diluted in cNL-48 (dark)). Briefly the following steps were performed: [0724] Conjugation. Amine coupling of the two ligands (CD33 and CD123) to the DNA nanolever (A48, B48, respectively) and purification of the conjugates using the proFIRE® solution (Dynamic Biosensors GmbH) at 25° C. [0725] Evaluation of all the combined affinity and avidity of all different proteins to both ligands attached on the surface of an ADP chip using a DRX+ instrument (dynamic BIOSENSORS). [0726] Statistical analysis (repeatability from 2 to 5 times) including regeneration of the chip surface every concentration analyzed and long dissociation times and data were fitted using a bi-exponential global fit.

[3] = target: T2, hCD123 (recombinant, construct not stated) (human, UniProt P26951 19-305, limits assumed); assay: switchSENSE, hCD33 and hCD123 co-immobilised 2:1; panel headed CD123
T2 construct: also called CD123 (Ligand 2)
T2 sequence (looked up): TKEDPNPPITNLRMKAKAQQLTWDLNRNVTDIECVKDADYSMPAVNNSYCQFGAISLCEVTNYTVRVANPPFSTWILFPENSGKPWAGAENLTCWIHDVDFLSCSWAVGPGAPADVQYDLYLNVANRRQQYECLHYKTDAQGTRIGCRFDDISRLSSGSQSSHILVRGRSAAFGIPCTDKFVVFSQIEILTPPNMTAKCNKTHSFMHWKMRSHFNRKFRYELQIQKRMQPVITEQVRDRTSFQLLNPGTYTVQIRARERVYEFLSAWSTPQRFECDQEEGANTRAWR
Description: as §1

[4] = target: T2, hCD123 (recombinant, construct not …); assay: switchSENSE, CD33 and CD123 on one chip; monophasic; CD123-only control, monophasic
[5] = target: T1, hCD33 (recombinant, construct not …); assay: switchSENSE, hCD33 and hCD123 co-immobilised 2:1; panel headed CD33
Description: as §1

[6] = target: T2, hCD123 (recombinant, construct not …); assay: switchSENSE, hCD33 and hCD123 co-immobilised 2:1; panel headed CD123, column KD1; KD2 printed N.A.
Description: as §1

[7] = target: T3, biotinylated extracellular domain of human CD123 (SEQ ID NO: 88), Fc and Avi tagged (human, UniProt P26951 19-303, biotinylated with BirA-GST (Avi tag)); assay: ribosome display selection, crude extract HTRF
T3 construct: also called hCD123
T3 sequence: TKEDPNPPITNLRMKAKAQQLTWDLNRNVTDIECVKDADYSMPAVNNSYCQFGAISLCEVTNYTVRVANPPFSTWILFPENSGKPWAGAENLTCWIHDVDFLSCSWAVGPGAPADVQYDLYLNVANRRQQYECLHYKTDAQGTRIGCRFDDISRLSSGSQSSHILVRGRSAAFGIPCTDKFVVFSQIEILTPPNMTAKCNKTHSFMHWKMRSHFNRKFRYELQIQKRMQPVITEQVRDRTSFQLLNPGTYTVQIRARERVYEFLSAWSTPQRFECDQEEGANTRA

[8] = target: T1, hCD33 (recombinant, construct not …); assay: switchSENSE, CD33 and CD123 on one chip
Description: as §1

[9] = target: T2, hCD123 (recombinant, construct not …); assay: switchSENSE, CD33 and CD123 on one chip
Description: as §1

[10] = target: T4, hCD33 and hCD123 immobilized simultaneously on one switchSENSE chip (ratio 2:1, CD33:CD123) (human, UniProt P20138 18-259; P26951 19-305, limits assumed); assay: switchSENSE, CD33 and CD123 on one chip; fast phase (affinity); fast phase (affinity)
T4 construct: Not a complex: two separate ligands on one surface; used for avidity values and for off-rates; also called both ligands; both targets attached to the surface of the chip
Description: as §1

[11] = target: T1, hCD33 (recombinant, construct not …); assay: switchSENSE, CD33 and CD123 on one chip; kon to CD33
Description: as §1

[12] = target: T2, hCD123 (recombinant, construct not …); assay: switchSENSE, hCD33 and hCD123 co-immobilised 2:1; panel headed CD123, column KD1 (affinity)
Description: as §1

[13] = target: T2, hCD123 (recombinant, construct not …); assay: switchSENSE; KD,1 (affinity); KD,1 (affinity), CD123
Description: as §1

[14] = target: T4, hCD33 and hCD123 immobilized …; assay: switchSENSE, CD33 and CD123 on one chip; fast phase (affinity)
Description: as §1

[15] = target: T1, hCD33 (recombinant, construct not …); assay: switchSENSE, hCD33 and hCD123 co-immobilised 2:1; panel headed CD33, column KD1 (affinity)
Description: as §1

[16] = target: T4, hCD33 and hCD123 immobilized …; assay: switchSENSE, CD33 and CD123 on one chip; slow phase (avidity)
Description: as §1

[17] = target: T2, hCD123 (recombinant, construct not …); assay: switchSENSE, CD33 and CD123 on one chip; kon to CD123
Description: as §1

[18] = target: T1, hCD33 (recombinant, construct not …); assay: switchSENSE; KD,1 (affinity); KD,1 (affinity), CD33
Description: as §1

[19] = target: T4, hCD33 and hCD123 immobilized …; assay: switchSENSE, CD33 and CD123 on one chip; slow phase (avidity); slow phase (avidity)
[20] = target: T4, hCD33 and hCD123 immobilized …; assay: switchSENSE, hCD33 and hCD123 co-immobilised 2:1; panel headed CD123, column KD2 (avidity, simultaneous binding of CD33 and CD123 per paragraph 694)
Description: as §1

[21] = target: T4, hCD33 and hCD123 immobilized …; assay: switchSENSE, hCD33 and hCD123 co-immobilised 2:1; panel headed CD33, column KD2 (avidity, simultaneous binding of CD33 and CD123 per paragraph 694)
Description: as §1

T1 sequence (P20138 18-259 limits assumed): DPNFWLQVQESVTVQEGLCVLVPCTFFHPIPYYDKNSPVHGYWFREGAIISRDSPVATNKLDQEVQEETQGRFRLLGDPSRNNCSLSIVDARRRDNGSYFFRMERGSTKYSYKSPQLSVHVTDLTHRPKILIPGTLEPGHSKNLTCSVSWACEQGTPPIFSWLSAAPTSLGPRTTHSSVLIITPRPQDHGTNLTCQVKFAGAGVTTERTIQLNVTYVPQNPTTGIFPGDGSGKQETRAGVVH
T4 sequence (P20138 18-259 limits assumed, one chain of several): as the sequence (P20138 18-259 limits assumed) above

koff [1]: 0.01 s⁻¹ | Kd [2]: 7.1 nM | binding result [3]: no binding
B1: DARPin® protein #40 (designed binder)
chain: DLGKKLLEAARAGQDDEVRELLKAGADVNAKDKDGYTPLHLAAREGHLEIVEVLLKAGADVNAKDKDGYTPLHLAAREGHLEIVEVLLKAGADVNAQDKSGKTPADLAADAGHEDIAEVLQKAAGSPTPTPTTPTPTPTTPTPTPTGSDLGVKLLLAASRGQLDEVRILLKAGADVNAKDIDEGYTPLHIAAYYGHLEIVEVLLKAGADVNAKDRYGKTPLHLAAISGHLEIVEVLLKAGADVNAQDDKGDTPADLAADYGHQDIAEVLQKAAGSPTPTPTTPTPTPTTPTPTPTGSDLGQKLLEAAWAGQDDEVRELLKAGADVNAKNSRGWTPLHTAAQTGHLEIFEVLLKAGADVNAKDDKGVTPLHLAAALGHLEIVEVLLKAGADVNAQDSWGTTPADLAAKYGHEDIAEVLQKAA
notes: also called Ni2C-αCD33-αCD3

koff [4]: 0.06 s⁻¹ | binding result [5]: no binding | Kd [6]: 4.2 nM
B2: DARPin® protein #41 (designed binder)
chain: DLGKKLLEAALEGQLDEVRELLKAGADVNAKDQEGYTPLHLAAALGHLEIVEVLLKAGADVNAKDSIGRTPLHLAAYKGHLEIVEVLLKAGADVNAQDLLGETPADLAAEQGHQDIAEVLQKAAGSPTPTPTTPTPTPTTPTPTPTGSDLGKKLLEAARAGQDDEVRELLKAGADVNAKDKDGYTPLHLAAREGHLEIVEVLLKAGADVNAKDKDGYTPLHLAAREGHLEIVEVLLKAGADVNAQDKSGKTPADLAADAGHEDIAEVLQKAAGSPTPTPTTPTPTPTTPTPTPTGSDLGQKLLEAAWAGQDDEVRELLKAGADVNAKNSRGWTPLHTAAQTGHLEIFEVLLKAGADVNAKDDKGVTPLHLAAALGHLEIVEVLLKAGADVNAQDSWGTTPADLAAKYGHEDIAEVLQKAA
notes: also called αCD123-Ni2C-αCD3

binding result [7]: binds
B3: DARPin® protein #35 (designed binder)
chain: DLGKKLLEAALEGQDDEVRELLKAGADVNAKDQEGYTPLHLAAALGHLEIVEVLLKAGADVNAKDSIGRTPLHLAAYKGHLEIVEVLLKAGADVNAQDLLGETPADLAAEQGHEDIAEVLQKAA
notes: CD123-specific domain; screened as crude extract

kon [8]: ~1e+06 M⁻¹ s⁻¹ | kon [9]: ~1e+07 M⁻¹ s⁻¹ | koff [10]: 0.03 s⁻¹ | kon [11]: 1.3e+06 M⁻¹ s⁻¹ | Kd [12]: 4.9 nM | Kd [13]: ~4.9 nM | koff [14]: ~0.01 s⁻¹ and 0.02 s⁻¹ | Kd [15]: 18 nM | koff [16]: ~0.001 s⁻¹ and 0.001 s⁻¹ | kon [17]: 7e+06 M⁻¹ s⁻¹ | Kd [18]: ~17.6 nM | koff [19]: 0.0015 s⁻¹ | Kd [20]: 0.29 nM | Kd [21]: 0.7 nM
B4: DARPin® protein #20 (designed binder)
chain: DLGKKLLEAARAGQDDEVRILMANGADVNALDWLGHTPLHLAAYEGHLEIVEVLLKNGADVNAIDDNNGFTPLHLAAIDGHLEIVEVLLKNGADVNAQDKFGKTAFDISIDNGNEDLAEILQKAAGSPTPTPTTPTPTPTTPTPTPTGSDLGDKLLLAATSGQDDEVRILLAAGADVNAKDYDGDTPLHLAADEGHLEIVEVLLKAGADVNAKDYSGSTPLHAAAAYGHLEIVEVLLKAGADVNAQDVFGYTPADLAAYVGHEDIAEVLQKAAGSPTPTPTTPTPTPTTPTPTPTGSDLGQKLLEAAWAGQDDEVRILLAAGADVNAKNSRGWTPLHTAAQTGHLEIFEVLLKAGADVNAKNDKRVTPLHLAAALGHLEIVEVLLKAGADVNARDSWGTTPADLAAKYGHGDIAEVLQKLA
notes: CD123-CD33-CD3; also called αCD123-αCD33-αCD3_1
